The subject of one test is TGFBR2. Briefly: TGFBR2 surface expression (knockdown or knockout) on T cells by flow cytometry. The format is cell-based, human. The conditions noted are these: for TGFBR2 knockout frequency, percent of cells in the culture: 6 days after electroporation of nuclease RNA, vs mock nucleofected. Here is the method: Nucleofection was carried out in the presence of 2 μg/1×10^6 cells of linearized DNA encoding the CAR and one of the candidate TGFBR2 shRNAmiRs.
Cells were analyzed for TGFBR2 expression at d7, 10, and 14 post-nucleofection using the anti-TGFBR2 antibody MM0056-4F14 (Abcam), and an anti-mouse kappa light chain secondary antibody conjugated to PE (BioLegend). CAR+ cells were identified using anti-FMC63-Alx647, produced in house. The mean fluorescence intensity (MFI) of TGFBR2 signal on the CAR+ was compared to that on the CAR− cells and a percent knockdown was calculated. The frequency of CAR+ events was consistent across the different constructs, ranging from 4.9% to 6.7% (FIG. 12).
Electroporated cells were cultured for 6 days in complete X-VIVO15 medium supplemented with 30 ng/ml IL-2 prior to an analysis of editing efficiency. This was achieved by staining cells with an anti-TGFβRII antibody (Abcam clone MM0056-4F14) followed by anti-mouse IgG κ light chain conjugated to PE (BioLegend clone RMK45). Data were acquired on a Beckman-Coulter CytoFLEX-S or LX.
Mock nucleofected T cells were stained with the anti-TGFβRII antibody and the secondary antibody or the secondary antibody alone to serve as positive and negative controls, respectively, for surface detection of TGFβRII.
A further study was conducted in which the activity of CAR T cells was assessed following various alterations to the TGFβ pathway. […] In some variants, a sequence encoding a shRNAmiR was also introduced at the TRC 1-2 site in the same cassette as the CAR (positioned between the CAR stop codon and a polyA sequence). In one variant, the shRNAmiR was a TGFBR2-specific shRNAmiR (construct 72154) while in another variant a shRNAmiR that is irrelevant to TGFβ function (targeting B2M—construct 72155) was introduced. A third variant of CAR T cells was produced using construct 72155, but they were edited at the TGFBR2 locus using the TGF1-2L296 nuclease described above in order to knockout the TGFBR2 gene. CAR T cells in the TGFBR2 KO group contained 60% KO.

The test system of the next test is SMAD2/3. Kind of test: Phosphorylated SMAD2/3 after TGFβ1 stimulation by flow cytometry. The conditions noted are these: BCMA CAR T cells, TGFβ1 500 ng/ml. The test is classed as cell-based, human. The text has this: T cells electroporated with TRC1-2L.1592 were immediately transduced with AAV72112 (encoding the anti-CD19 FMC63 CAR described in Example 1 and a TGFBR2-specific shRNAmiR inserted after the CAR stop codon and before a polyA sequence) or AAV7206 (encoding a control FMC63 CAR with no RNAi). Following six days of culture, CD3-CAR+ cells were purified by FACS using methods described above. In addition, TGFβRII-cells from TGF1-2L.296-edited cultures were sorted in this manner. Sorted cells were rested in serum free medium overnight before being stimulated with 500 ng/ml of recombinant human TGFβ1, the ligand for TGFBR2 (PeproTech). Thirty minutes following TGFβ1 addition, cells were harvested and immediately prepared for staining using Phos-Flow lyse-fix buffer and Phos-Flow Fix-Perm buffer III (BD Biosciences) according to the manufacturer's instructions. Fixed cells were stained with anti-pSMAD2/3-PE (BD Biosciences) and data were acquired on a Beckman-Coulter CytoFLEX-LX. […]
BCMA CAR T cells having knock out of TGFBR2 were prepared with the TGF 1-2L.296 meganuclease and cells having knock down of TGFBR2 were prepared with the 72112 TGFBR2 shRNAmiR as described above. The respective BCMA CAR T cell groups were treated with TGFβ1 (500 ng/ml) and all cell groups were harvested and analyzed as described above. […]
In general terms: In flow cytometry, cells or beads pass a laser one at a time.

B1: TGF 1-2L.296: engineered meganuclease targeting the TGFBR2 gene (SEQ ID NO: 65) (protein)
chain: MNTKYNKEFLLYLAGFVDGDGSIYACITPKQRSKFKHSLRLRFTVGQKTQRRWFLDKLVDEIGVGYVLDGGGVSEYRLSEIKPLHNFLTQLQPFLKLKQKQANLVLKIIEQLPSAKESPDKFLEVCTWVDQIAALNDSKTRKTTSETVRAVLDSLPGSVGGLSPSQASSATSSASSSPGSGISEALRAGAGSGTGYNKEFLLYLAGFVDGDGSIYACIEPDQSRKFKHTLRLYFEVGQKTQRRWFLDKLVDEIGVGYVYDRGSVSNYRLSEIKPLHNFLTQLQPFLKLKQKQANLVLKIIEQLPSAKESPDKFLEVCTWVDQIAALNDSKTRKTTSETVRAVLDSLSEKKKSSP
B1: the “TGFBR2 knockout frequency, percent of cells in the culture” value with TGFBR2 turned out to be 69%. Further, the “TGFBR2 KO in CAR T cell group” value in the test with TGFBR2 (BCMA CAR T cells, construct 72155 plus nuclease) was determined as 60%. For the same molecule, the “pSMAD2/3 level after TGFβ1” value in the test on SMAD2/3 is “decreased pSMAD2/3 to levels comparable to, or lower than, the untreated BCMA CAR T cell control”.

B2: TGF 1-2x.5: engineered meganuclease targeting the TGFBR2 gene (SEQ ID NO: 64) (protein)
chain: MNTKYNKEFLLYLAGFVDGDGSIYACIEPDQSRKFKHTLRLYFEVGQKTQRRWFLDKLVDEIGVGYVYDRGSVSNYRLSEIKPLHNFLTQLQPFLKLKQKQANLVLKIIEQLPSAKESPDKFLEVCTWVDQIAALNDSKTRKTTSETVRAVLDSLPGSVGGLSPSQASSAASSASSSPGSGISEALRAGAGSGTGYNKEFLLYLAGFVDGDGSIFACITPSQTHKFKHRLFLRFTVGQKTQRRWFLDKLVDEIGVGYVVDSGSVSEYRLSQIKPLHNFLTQLQPFLKLKQKQANLVLKIIEQLPSAKESPDKFLEVCTWVDQIAALNDSKTRKTTSETVRAVLDSLSEKKKSSP
Turning to B2, the “TGFBR2 knockout frequency, percent of cells in the culture” value in the test on TGFBR2 is 38.6%.

(Values after patent US11851680B2, “Genetically-modified immune cells comprising a microRNA-adapted shRNA (shRNAmiR)” (Precision Biosciences, Inc., priority 2019, dated 2023).)
